Data from US10196454B2, “Anti-PMEL17 antibodies and immunoconjugates” (GENENTECH, INC., priority 2012, dated 2019).

Assays:
[1] = tested on: human PMEL17; assay: Monoclonal antibody epitope mapping with PMEL17 deletion mutants (immunoblot, FACS); format: binding; conditions: N-terminal deletions by immunoblot, C-terminal deletions in 293 cells by FACS
Description: All the constructs for epitope mapping were made by PCR amplification of each fragment and subcloning into either pRKtkneo vector with an N-terminal gD tag, or pRKtkneo vector with an N-terminal gD tag and a C-terminal GPI anchor. Transfections were performed using FuGene 6 (Roche Applied Science), and empty vector was used as control. Full-length human PMEL17 was subcloned into pRKtkneo vector with an N-terminal gD tag.
A signal sequence and a gD epitope tag were fused to the N-terminal sequence of a series of deletion mutants, which were then expressed in mammalian cells and the lysates analyzed by immuoblotting for reactivity with 17A9 or 77E6. The N-terminal deletions tested included Δ100, Δ255, Δ292, Δ315, Δ444, Δ515, and Δ567.
In addition, C-terminal deletions with an N-terminal gD tag and a C-terminal GPI anchor were transiently transfected into 293 cells and analyzed for antibody binding by FACS. The C-terminal deletions tested included PMEL1725-125, PMEL1725-105, PMEL1725-85, PMEL1725-65, and PMEL1725-45. Finally, a PMEL17 fragment comprising the region from amino acid 515 through the transmembrane domain, but lacking the cytoplasmic region (“Δ515-C”) and a PMEL17 fragment comprising just the cytoplasmic domain with an N-terminal gD tag and a C-terminal GPI anchor were analyzed by immuoblotting for reactivity with 77E6.

[2] = tested on: 928mel cells; assay: Live cell staining and FACS with directly labeled antibodies; format: cell-based
Description: The predominance of the N-terminal epitope at the cell surface relative to the cytoplasmic epitope is consistent with stronger FACS signals observed with 17A9 over 77E6. Nevertheless, it appears that some portion of the cytoplasmic region is present at the cell surface to account for the FACS signals observed with 77E6. To address this, live cells were reacted with the 77E6 and 17A9 antibodies that were directly labeled with Alexa Fluors 555 and 488, respectively. […] The binding of the individual antibodies was unaffected by the presence of the other antibody. […] Further, although 17A9 stained all cells uniformly and consistently, 77E6 staining was variable from cell to cell and the overall degree of staining varied across preparations. […] Overall, the uniform and intense reactivity of 17A9 on melanoma cells makes this antibody a good candidate for drug conjugation.

[3] = tested on: normal human melanocytes; assay: Toxicity of anti-PMEL17 ADC in normal melanocytes (CellTiter-GloII, five days); format: cell-based; conditions: versus SK-MEL-5 and SK-MEL-23, five days
Description: Finally, SK-MEL-5 and SK-MEL-23 melanoma cells, or normal human melanocytes, were incubated with serial dilutions of the 17A9 ADC and five days later cell numbers were determined using CellTiter-GloII.

[4] = tested on: normal human melanocytes; assay: Flow cytometry of normal human melanocytes and SK-MEL-5 cells; format: binding; conditions: intensity comparable to SK-MEL-5
Description: Normal human melanocytes and SK-MEL-5 melanoma cells were reacted with chimeric 17A9, or no primary antibody, followed by Alexa 488-labeled anti-human IgG and analyzed by flow cytometry.

[5] = target: T1, PMEL17 (Homo sapiens, UniProt P40967); assay: Species cross-reactivity by FACS, 293S cells stably transfected with gD tagged PMEL17; format: binding; set-up: gD tag (N); expressed in transfected cells; conditions: 10 μg/ml antibody
T1 sequence (P40967 25-661): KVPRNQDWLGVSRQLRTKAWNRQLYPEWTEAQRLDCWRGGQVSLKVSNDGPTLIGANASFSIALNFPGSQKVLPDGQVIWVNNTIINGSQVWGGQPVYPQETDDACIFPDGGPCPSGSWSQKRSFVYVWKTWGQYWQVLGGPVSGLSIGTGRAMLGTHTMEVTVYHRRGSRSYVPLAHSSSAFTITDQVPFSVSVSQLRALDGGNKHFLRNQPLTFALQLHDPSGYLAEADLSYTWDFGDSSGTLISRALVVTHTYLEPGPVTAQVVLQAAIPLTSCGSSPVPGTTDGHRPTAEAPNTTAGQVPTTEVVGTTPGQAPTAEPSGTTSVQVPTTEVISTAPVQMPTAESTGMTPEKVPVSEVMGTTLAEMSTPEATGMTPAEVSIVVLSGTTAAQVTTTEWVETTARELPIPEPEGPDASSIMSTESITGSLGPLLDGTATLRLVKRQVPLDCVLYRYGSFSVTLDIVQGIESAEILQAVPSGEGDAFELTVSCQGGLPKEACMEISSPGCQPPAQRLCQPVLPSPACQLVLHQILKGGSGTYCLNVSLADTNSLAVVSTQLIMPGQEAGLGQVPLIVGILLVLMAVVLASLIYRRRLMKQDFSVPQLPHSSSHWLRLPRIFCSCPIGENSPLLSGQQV
Description: Antibody 17A9 was tested to determine if it cross-reacts with PMEL17 from species other than human. […] All of the sequences include the signal sequence except for the cynomolgus monkey PMEL17. Residues that are identical among all four species are indicated by asterisks (*). In the region where the rat sequence has a deletion, residues that are identical among the remaining three species are indicated by a plus (+). Binding to each species of PMEL17 was determined by FACS analysis using 293S cells stably transfected with an N-terminal gD tagged PMEL17 (human, cynomolgus monkey, rat, or mouse PMEL17); stained with 10 μg/ml 17A9 antibody; and detected with R-Phycoerythrin conjugated goat anti-mouse antibody.

[6] = target: T1, PMEL17; assay: Immunohistochemistry of human melanoma tissue specimens; set-up: The expression of PMEL17 was evaluated across a panel of human melanoma tissue specimines by immunohistochemistry; from tissue; host or cells: 58 human melanoma specimens (30 primary, 28 metastatic); conditions: 58 specimens (30 primary, 28 metastatic)
Description: To assess the potential liability of targeting PMEL17 on normal melanocytes, the level of expression of this target in normal human skin was evaluated by immunohistochemistry. Immunohistochemistry (IHC) was performed on 4 μm thick formalin-fixed paraffin embedded tissue sections mounted on glass slides. All IHC steps were carried out on the Ventana Discovery XT (Ventana Medical Systems; Tucson, Ariz.) autostainer. Pretreatment was done with Cell Conditioner 1, standard time. Primary antibody, PMEL17 clone 31D1 was used at a concentration of 10 μg/ml and was incubated on slides for 1 hour at 37° C. Ventana Mouse OmniMap (Ventana Medical Systems; AZ) was used as the detection system. […]
The expression of PMEL17 was evaluated across a panel of human melanoma tissue specimines by immunohistochemistry substantially as described above, using both 17A9 and 31D1. Staining was scored on an arbitrary scale ranging from zero, for absent, to 3+ for most intense: • 0 (negative): very weak or no staining in >90% of melanoma cells • 1+(mild): predominant staining pattern is weak • 2+(moderate): predominant staining pattern is moderately strong in the majority (>50%) of melanoma cells • 3+(strong): predominant staining pattern is strong in the majority (>50%) of melanoma cells Exemplary staining for each of the levels of the scale is shown in FIG. 7A, left panels.

B1: 17A9 (antibody, listed as Mus musculus, V domains shown)
VH: EVQLQQSGPELVKPGASMKISCKSSGYSFTRYTMNWVKQSHGKNLEWIGVINPYNGGTVYNQKFKGKATLTVDKSSSTAYMELLSLTSEDSAVYYCARTDYDGYAMDYWGQGTSVTVSS
VL: DVQITQSPSYLAASPGETITINCRATKSISKYLAWYQEQPGKTNNLLIYSGSTLQSGIPSRFSGSGSGTDFTLTISSLEPEDFAMYYCQQHNEYPYTFGSGTKLEIK
For B1, the “binding to PMEL17 deletion mutants” value [1] was “bound only to PMEL1725-125”, the “binding to PMEL17 deletion mutants” value ([1]; listed as 17A6) was “bound only to full-length PMEL17” and the “binding in the presence of the other labeled antibody (competition)” value ([2]; 77E6 and 17A9 alone or both together, FACS) was “unaffected”. The “cell surface staining of live-labeled cells” value ([2]; Alexa Fluor labeled antibodies) was “uniform cell surface staining”, the “IC50 on normal melanocytes relative to melanoma cell lines” value [3] was roughly 100 fold and the “FACS staining of cultured normal human melanocytes” value [4] was “FACS+”. For the same molecule, the “binding to human PMEL17 by FACS” value [5] was “bind” and the “human melanoma specimens PMEL17+ when detected with the antibody” value [6] was 64%.
